B1: (AAC)4-S6-N35-S6 tandem mRNA on DNA tether (mixed)
RNA: GGACUCUAUCGAGUCCAACAACAACAACAGACCUCUCUACCAUCACCUAAACUUUACUCUACCAUCACCAGACCUCGCGCCCAGGACGACACACUUUGGACAGGACACACAGGACACAGG
DNA: CCTGTGTCCTGTGTGTCCTGTCCAAAGTGTGTCGTCC
B2: (AAC)6-Cy5-N35-S6 mRNA on DNA tether (mixed)
RNA: GGACUCUAUCGAGUCCAACAACAACAACAACAACCCCUGCAUCACCUAAACUUUACUCUACCAUCACCAGACCUCGCGCCCAGGACGACACACUUUGGACAGGACACACAGGACACAGG
DNA: B1 DNA
modifications: internal Cy5 after nt 35

Columns and labels:
Hfq:R16A (rim mutant) [1] = biological target: T1, Hfq:R16A (rim mutant) (Escherichia coli K12, UniProt P0A6X3 1-102, R16A); assay: smFRET; sRNA (N13)-Hfq; half as much time on distant site as WT; smFRET: 10 mM Tris-HCl pH 7.5, 50 mM NaCl, 50 mM KCl, 4 mM Trolox, 0.01% Nikkol, 0.8% glucose, RNasin, oxygen scavenger; EMSA: 1x TNK, 5% glycerol, 15 min RT, native 8% PAGE 1x TBE 4 C; details: protein: recombinant; tags: none (untagged); chain copies: 6; label: tether 5' biotin, 3' Cy5; RNA 3' extension paired to DNA tether; 5' hairpin
[2] = biological target: Hfq:Y25D (distal face mutant) (Escherichia coli K12, UniProt P0A6X3 1-102, Y25D); assay: smFRET; 5 nM Y25D, compaction E~0.75; smFRET: 10 mM Tris-HCl pH 7.5, 50 mM NaCl, 50 mM KCl, 4 mM Trolox, 0.01% Nikkol, 0.8% glucose, RNasin, oxygen scavenger; EMSA: 1x TNK, 5% glycerol, 15 min RT, native 8% PAGE 1x TBE 4 C; details: protein: recombinant; tags: none (untagged); chain copies: 6; label: internal Cy5; tether 5' biotin, 3' Cy3 (unlabeled tether for sRNA assays); RNA 3' extension paired to DNA tether; 5' hairpin
Hfq:R16A (rim mutant) [3] = biological target: T1, Hfq:R16A (rim mutant); assay: smFRET; 5 nM R16A, less compaction E~0.43; smFRET: 10 mM Tris-HCl pH 7.5, 50 mM NaCl, 50 mM KCl, 4 mM Trolox, 0.01% Nikkol, 0.8% glucose, RNasin, oxygen scavenger; EMSA: 1x TNK, 5% glycerol, 15 min RT, native 8% PAGE 1x TBE 4 C; details: protein: recombinant; tags: none (untagged); chain copies: 6; label: internal Cy5; tether 5' biotin, 3' Cy3 (unlabeled tether for sRNA assays); RNA 3' extension paired to DNA tether; 5' hairpin
[4] = biological target: Hfq:TM (triple rim mutant) (Escherichia coli K12, UniProt P0A6X3 1-102, R16A;R17A;R19D); assay: smFRET; 5 nM TM, less compaction E~0.37; smFRET: 10 mM Tris-HCl pH 7.5, 50 mM NaCl, 50 mM KCl, 4 mM Trolox, 0.01% Nikkol, 0.8% glucose, RNasin, oxygen scavenger; EMSA: 1x TNK, 5% glycerol, 15 min RT, native 8% PAGE 1x TBE 4 C; details: protein: recombinant; tags: none (untagged); chain copies: 6; label: internal Cy5; tether 5' biotin, 3' Cy3 (unlabeled tether for sRNA assays); RNA 3' extension paired to DNA tether; 5' hairpin

Binder | binding result (Hfq:R16A (rim mutant) [1]) | binding result [2] | binding result (Hfq:R16A (rim mutant) [3]) | binding result [4]
B1 | binds |  |  | 
B2 |  | binds | binds | binds
